Results taken from the supplement of paper PMC10724198.
Where “and” joins values, the source holds several entries; their conditions need not be identical. Equal values may be shown once. ± gives the standard deviation of the averaged measurements.

Key:
[1] = tested on: Saccharomyces cerevisiae; experiment: protein stability index of tFT-peptide fusion in deletion strain of DOA10 (PSI (0-1 scale)); higher = more stable (slower turnover)
Procedure: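 MPS profiling in S. cerevisiae of two library types built from selected 12-aa C-degron peptides (IN1, IN2, LN1, LN3, VN2, R1-R5, W1-W3, Atg1 and Rpa12 C-termini): saturation mutagenesis libraries and C-terminal +1 capping libraries (13 aa). Each peptide is fused to the C-terminus of a sfGFP-mCherry timer, after a GGGS linker. Cells are FACS-sorted into 8 mCherry/sfGFP bins and sequenced. PSI runs from 0 (unstable) to 1 (stable), measured once in wild type and in the das1Δ or doa10Δ background.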

[2] = tested on: Saccharomyces cerevisiae; experiment: protein stability index of tFT-peptide fusion in wild type (PSI (0-1 scale)); higher = more stable (slower turnover); conditions: genetic background: wild type
[3] = tested on: Saccharomyces cerevisiae; experiment: protein stability index of tFT-peptide fusion (C-terminal peptide) (PSI (0-1 scale)); higher = more stable (slower turnover)
Procedure: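 MPS profiling in S. cerevisiae of the tFT-X12 degron library: putative degron peptides plus stable controls, 12 aa, fused to the C-terminus of a sfGFP-mCherry timer. Cells are FACS-sorted into 8 mCherry/sfGFP bins and deep-sequenced. PSI runs from 0 (unstable) to 1 (stable). Backgrounds are wild type, das1Δ and doa10Δ at 30 °C, and wild type, das1Δ, cdc34-1 and cdc53-1 at 37 °C; 2-3 technical replicates each.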

[4] = tested on: Saccharomyces cerevisiae; experiment: protein stability index of tFT-peptide fusion in deletion strain of DAS1 (PSI (0-1 scale)); higher = more stable (slower turnover)
[5] = tested on: Saccharomyces cerevisiae; experiment: protein stability index of tFT-peptide fusion (C-terminal peptide) (PSI (0-1 scale)); higher = more stable (slower turnover); conditions: genetic background: wild type; temperature: 30 C
[6] = genetic background: cdc34-1, temperature: 37 C
[7] = genetic background: cdc53-1, temperature: 37 C
[8] = genetic background: das1 deletion, temperature: 30 C
[9] = genetic background: das1 deletion, temperature: 37 C
[10] = genetic background: doa10 deletion, temperature: 30 C
[11] = genetic background: wild type, temperature: 30 C
[12] = genetic background: wild type, temperature: 37 C
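Throughout, for protein stability index of tFT-peptide fusion (C-terminal peptide): PSI is a weighted mean of sequencing reads over stability bins, variants kept only with over 10 reads, mCherry proximal and sfGFP distal, peptide attached via GGGS linker.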
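Throughout, for protein stability index of tFT-peptide fusion in deletion strain of DAS1: PSI is a weighted mean of each variant's read distribution over the sorted stability bins, computed only for variants having over 10 reads in total.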
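Throughout, for protein stability index of tFT-peptide fusion in deletion strain of DOA10: PSI per variant is the weighted mean of its sequencing read distribution over the sorted stability bins, counting only variants with over 10 reads summed across bins.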
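Throughout, for protein stability index of tFT-peptide fusion in wild type: PSI derived as read-weighted mean over the 8 sorting bins, only variants exceeding 10 total reads kept, mCherry placed adjacent to the peptide and sfGFP distal.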

Sequence | protein stability index [1] | protein stability index [2] | further results
AITLFMCPLLLR | 0.644 | 0.364 | 
RSLYVLLPLYFR | 0.619 | 0.261 | 
GLYMQSVGCWFR | 0.678 | 0.287 | 
GLYMCSVGCLFR | 0.654 | 0.575 | 
AITLPMCPLDLR | 0.685 | 0.676 | 
RVTRLDAIEFRI | 0.7 | 0.704 | 
RSLRVLGPLYFR | 0.687 | 0.344 | 
CLVSLPILLFRR | 0.66 | 0.43 | 
MVTRLDAIYFRI | 0.653 | 0.237 | 
GLYMCSVGCWFRM | 0.374 | 0.154 | 
AITLPMCPLPLR | 0.664 | 0.648 | 
AITLPMCPLLWR | 0.634 | 0.326 | 
AITLPMCPLLMR | 0.606 | 0.302 | 
VRGAVGGWRLVG |  | 0.161 | protein stability index [3, 6]: 0.572 ± 0.059; protein stability index [3, 7]: 0.754 ± 0.032; protein stability index [3, 8]: 0.629 ± 0.013; protein stability index [3, 9]: 0.764 ± 0.016; protein stability index [3, 10]: 0.116 ± 0.028; protein stability index [3, 11]: 0.131 ± 0.028; protein stability index [3, 12]: 0.23 ± 0.0039; protein stability index [4]: 0.681; protein stability index [5]: 0.228 ± 0.082
RVTSLDAIYFRI | 0.669 | 0.55 | 
GHYMCSVGCWFR | 0.643 | 0.365 | 
CLVSLPALLFFR | 0.664 | 0.0784 | 
RSLRVLLPWYFR | 0.666 | 0.606 | 
IITLPMCPLLLR | 0.597 | 0.324 | 
GLYMCSVGCWMR | 0.575 | 0.253 | 
RSLRVLLPMYFR | 0.658 | 0.334 | 
RVTRLDAIYIRI | 0.683 | 0.325 | 
RVTRLDAIYFRW | 0.709 | 0.472 | 
RVTRLDAHYFRI | 0.71 | 0.684 | 
CYVSLPILLFFR | 0.582 | 0.0495 | 
RVTRLDAIYFAI | 0.542 | 0.481 | 
RSLRELLPLYFR | 0.698 | 0.476 | 

Sequence | protein stability index [1] | protein stability index [2] | further results
GLYMCSVGFWFR | 0.545 | 0.364 | 
AITIPMCPLLLR | 0.639 | 0.236 | 
LVTRLDAIYFRI | 0.604 | 0.234 | 
AITLPFCPLLLR | 0.667 | 0.138 | 
PITLPMCPLLLR | 0.648 | 0.471 | 
RVTRLDAQYFRI | 0.683 | 0.668 | 
GLYMCSVGQWFR | 0.671 | 0.636 | 
PSLRVLLPLYFR | 0.679 | 0.285 | 
GLYMCSVGCWQR | 0.677 | 0.629 | 
RSLRVLLPLYFRY | 0.606 | 0.259 | 
AITLPMCPLLGR | 0.607 | 0.603 | 
GLDMCSVGCWFR | 0.689 | 0.328 | 
RVTRLDAIYFRIL | 0.0992 | 0.0595 | 
GLYMCSVGCWAR | 0.5 | 0.438 | 
AITLPMCPLLQR | 0.671 | 0.626 | 
RSLRDLLPLYFR | 0.702 | 0.507 | 
RSLRVLLPAYFR | 0.65 | 0.577 | 
GLYMCSVGWWFR | 0.557 | 0.499 | 
RSLRVLLPNYFR | 0.673 | 0.64 | 
RVYRLDAIYFRI | 0.587 | 0.321 | 
AITLPMCPSLLR | 0.68 | 0.647 | 
RVTRLDAIYFFI | 0.495 | 0.471 | 
CLVSLPYLLFFR | 0.64 | 0.0667 | 
RSLRVLLPLLFR | 0.661 | 0.371 | 
PDKRNHLIKLLN |  | 0.141 and 0.117 | protein stability index [3, 6]: 0.537 ± 0.022; protein stability index [3, 7]: 0.691 ± 0.03; protein stability index [3, 8]: 0.648 ± 0.029; protein stability index [3, 9]: 0.704 ± 0.0085; protein stability index [3, 10]: 0.0937 ± 0.024; protein stability index [3, 11]: 0.119 ± 0.0097; protein stability index [3, 12]: 0.153 ± 0.031; protein stability index [4]: 0.661 and 0.625; protein stability index [5]: 0.194 ± 0.031
AITLPMCPLLAR | 0.343 | 0.311 | 
CHVSLPILLFFR | 0.624 | 0.0491 | 

Sequence | protein stability index [1] | protein stability index [2] | further results
RVTNLDAIYFRI | 0.677 | 0.55 | 
RSLRVGLPLYFR | 0.665 | 0.287 | 
GLYMCSVGCWFRE | 0.641 | 0.453 | 
RVTRLDAIYFRY | 0.722 | 0.447 | 
RVTRLDAIYTRI | 0.716 | 0.688 | 
RSLRVLLPHYFR | 0.683 | 0.663 | 
GLYMCSAGCWFR | 0.696 | 0.427 | 
CLVSLPIDLFFR | 0.698 | 0.648 | 
RVTRLDAIMFRI | 0.686 | 0.496 | 
RVTMLDAIYFRI | 0.614 | 0.52 | 
AITLPMCCLLLR | 0.602 | 0.139 | 
RVTRLDAIYFMI | 0.173 | 0.162 | 
AITLPMCPLLLRF | 0.615 | 0.121 | 
GLYMCSVGCWPR | 0.67 | 0.64 | 
RSLRVLLPLYFRC | 0.476 | 0.218 | 
HVTRLDAIYFRI | 0.702 | 0.343 | 
RSLFVLLPLYFR | 0.613 | 0.265 | 
RVTRLDAIYYRI | 0.716 | 0.582 | 
RSLRHLLPLYFR | 0.693 | 0.45 | 
CLVSPPILLFFR | 0.651 | 0.0809 | 
AITLPMCPELLR | 0.674 | 0.663 | 
RSLRVLTPLYFR | 0.68 | 0.246 | 
CLVSLPILLFFRR | 0.593 | 0.0999 | 
RSLLVLLPLYFR | 0.638 | 0.344 | 
RVTREDAIYFRI | 0.699 | 0.625 | 
AITLPMCPLGLR | 0.683 | 0.644 | 
LKCLRQKMNHQN |  | 0.205 | protein stability index [4]: 0.682

Sequence | protein stability index [1] | protein stability index [2] | further results
GTSCGYKFRTNN |  | 0.261 | protein stability index [4]: 0.659
ARWRAGLWRGAS |  | 0.653 | protein stability index [4]: 0.7
KKHKVGQKQKIN |  | 0.0595 | protein stability index [4]: 0.567
CTDCGYKFRTNN |  | 0.254 | protein stability index [4]: 0.662
CTHCGYKFRTNN |  | 0.264 | protein stability index [4]: 0.709
CTSCGYKFNTNN |  | 0.42 | protein stability index [4]: 0.722
LKELRQKMNHQN |  | 0.217 | protein stability index [4]: 0.673
PDKRNHLIALLN |  | 0.216 | protein stability index [4]: 0.634
ARWRVGLWRGASW |  | 0.67 | protein stability index [4]: 0.71
FSMRWTRRYWVN |  | 0.101 | protein stability index [4]: 0.585
LVVYLSCVACSN |  | 0.0158 | protein stability index [4]: 0.0313
ARWRVGLWRGPS |  | 0.672 | protein stability index [4]: 0.69
KKHKKGCKQKIN |  | 0.0767 | protein stability index [4]: 0.598
CTSCGYKFRRNN |  | 0.49 | protein stability index [4]: 0.703
KKHKKGLKQKIN |  | 0.0663 | protein stability index [4]: 0.596
KKHSKGQKQKIN |  | 0.0645 | protein stability index [4]: 0.576
LVVYLSCVACINH |  | 0.0236 | protein stability index [4]: 0.0365
RLIQPLPVSFLN |  | 0.262 | protein stability index [4]: 0.593
PSLAASFERVVG |  | 0.655 | protein stability index [4]: 0.675
CTSDGYKFRTNN |  | 0.517 | protein stability index [4]: 0.669
LWVYLSCVACIN |  | 0.0149 | protein stability index [4]: 0.0209
FSMRWTFDYWVN |  | 0.618 | protein stability index [4]: 0.577
KKPKKGQKQKIN |  | 0.174 | protein stability index [4]: 0.591
PSLAASFWLVVG |  | 0.38 | protein stability index [4]: 0.611
